Laboratory results from patent US20200095636A1, “ANTIDOTE-MEDIATED REVERSAL OF EXTRACELLULAR APTAMER STAINING” (Duke University, published 2020).

Key:
[1] = target: epidermal growth factor receptor (EGFR) on A431 epidermoid carcinoma cells (human) (UniProt P00533); experiment: flow cytometry of stained A431 cells immediately before and after FACS
[2] = target: EGFR (epidermal growth factor receptor) (Homo sapiens, UniProt P00533 P00533:25-1210); experiment: flow; apparent; A431 cells, on ice 30 min, media + 1% BSA + salmon sperm DNA; binding blocked or reversed at 37 C by antidotes A9 and mA9 but not scrambled sA9; settings: tags: endogenous on A431 epidermoid carcinoma cells (ATCC); label: 5' AF488
Procedure: All aptamers were folded in PBS+/+ by denaturation at 65° C. for 5 min followed by passive cooling to ambient temperature for 3 min. In general, 500 nM aptamer solutions were used for staining, but this concentration varied as noted in some assays. For aptamer-SA staining solutions, 2:1 aptamer conjugates were prepared with 1 μM aptamer and 500 nM AF488-SA or AF647-SA. All staining solutions were prepared in Media+ and contained 1 mg/mL salmon sperm DNA to mitigate non-specific binding. All antibodies were used as 1:50 dilutions in Media+ with 1 mg/mL salmon sperm DNA. Both FITC-conjugated ICR10 (Abcam) and PE-conjugated D1D4J (Cell Signaling Technologies) monoclonal EGFR antibodies were used for staining.
A431 cells were stained with various concentrations (25, 50, 125, 250 or 500 nM) of E07 only or E07-SA conjugate mixtures prepared by reacting 1:1, 2:1 or 3:1 biotinylated E07 with tetrameric streptavidin. Stained cells were washed, analyzed by flow cytometry and their fluorescence corresponding to the amount of bound E07 or E07-SA was plotted to determine apparent binding affinities (dissociation constants; KD) and cell surface saturation (total number of receptors; Bmax). Conjugate mixtures prepared from higher E07: SA ratios had higher apparent affinities, but lower apparent saturation.

Row | Molecule | losses during sorting (percent of stain fluorescence lost) [1] [%] | Kd [2] [nM]
1 | FITC-conjugated ICR10 (Abcam) monoclonal EGFR antibody | 11 | 
2 | PE-conjugated D1D4J (Cell Signaling Technologies) monoclonal EGFR antibody | 11 | 
3 | GGACGGAUUUAAUCGCCGUAGAAAGCAUGUCAAAGCCGGAACCGUCC (ssRNA, 2'-F C/U, 2'-OH purines, 3' idT) [E07] |  | 62.7
